Assay results reported in patent US20220315655A1.

Biological target: recombinant cynomolgus monkey PD-L1 soluble protein (cynomolgus monkey) (UniProt G7PSE7)
Test: sandwich ELISA, antibody captured on anti-human Fc, biotinylated rec. cynomolgus PD-L1 titrated (x axis), fluorescence

Avelumab (antibody), sequence (VH): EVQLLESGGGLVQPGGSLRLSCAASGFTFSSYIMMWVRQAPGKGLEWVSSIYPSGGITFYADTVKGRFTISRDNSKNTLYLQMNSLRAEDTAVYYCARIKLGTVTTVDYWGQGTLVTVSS
Avelumab (antibody), sequence (VL): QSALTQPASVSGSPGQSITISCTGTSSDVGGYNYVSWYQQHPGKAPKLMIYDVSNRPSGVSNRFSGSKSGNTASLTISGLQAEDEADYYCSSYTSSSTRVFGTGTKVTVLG
recombinant cynomolgus monkey PD-L1 soluble protein (cynomolgus monkey), sequence (G7PSE7 entry or part of it): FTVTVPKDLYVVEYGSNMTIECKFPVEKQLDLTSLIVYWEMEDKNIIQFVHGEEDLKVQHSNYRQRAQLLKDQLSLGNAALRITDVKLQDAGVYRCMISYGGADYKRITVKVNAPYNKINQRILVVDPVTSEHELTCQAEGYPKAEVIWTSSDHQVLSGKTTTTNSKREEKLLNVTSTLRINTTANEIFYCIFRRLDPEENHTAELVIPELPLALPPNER

- EC50 (read off the curve): 0.05 nM
Substance: Avelumab (antibody)
